Experiments:
[1] = biological target: T1, recombinant human CD39-L4 (NTPDase5, ENTPD5) (human, UniProt O75356 25-428); test: ELISA on plate-coated recombinant huCD39 L4; the single curve has no legend on the sheet, I-394 by the legend paragraph 70
T1 construct: Genbank NP_001240 (precursor) is printed
T1 sequence: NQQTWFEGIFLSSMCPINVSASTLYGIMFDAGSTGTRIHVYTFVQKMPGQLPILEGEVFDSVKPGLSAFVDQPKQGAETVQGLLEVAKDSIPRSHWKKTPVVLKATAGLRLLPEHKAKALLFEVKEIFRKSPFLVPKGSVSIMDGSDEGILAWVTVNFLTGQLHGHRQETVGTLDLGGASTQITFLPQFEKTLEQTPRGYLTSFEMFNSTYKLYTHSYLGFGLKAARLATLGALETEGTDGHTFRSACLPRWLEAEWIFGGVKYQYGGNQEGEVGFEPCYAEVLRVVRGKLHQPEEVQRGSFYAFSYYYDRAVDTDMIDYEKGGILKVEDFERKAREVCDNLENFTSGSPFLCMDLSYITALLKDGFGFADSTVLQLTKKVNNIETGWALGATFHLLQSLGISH
Experimental: Wells were washed in TBS Tween 20, and further saturated 2H at RT in TBS Blocking buffer. Dose range concentration of primary antibody was incubated in TBS blocking buffer for 2 h at RT. Wells were washed in TBS Tween 20. […] Optical density was measured on Enspire™ at OD=450.

[2] = biological target: T2, human CD39 mutant 5 (human, UniProt P49961 1-510); test: flow cytometry on Hek-293T cells expressing CD39 mutant 5 (panel M5); unstained (US) median 8,98; antibody concentration not shown
T2 construct: Expressed on Hek-293T cells; also called M5
T2 chain: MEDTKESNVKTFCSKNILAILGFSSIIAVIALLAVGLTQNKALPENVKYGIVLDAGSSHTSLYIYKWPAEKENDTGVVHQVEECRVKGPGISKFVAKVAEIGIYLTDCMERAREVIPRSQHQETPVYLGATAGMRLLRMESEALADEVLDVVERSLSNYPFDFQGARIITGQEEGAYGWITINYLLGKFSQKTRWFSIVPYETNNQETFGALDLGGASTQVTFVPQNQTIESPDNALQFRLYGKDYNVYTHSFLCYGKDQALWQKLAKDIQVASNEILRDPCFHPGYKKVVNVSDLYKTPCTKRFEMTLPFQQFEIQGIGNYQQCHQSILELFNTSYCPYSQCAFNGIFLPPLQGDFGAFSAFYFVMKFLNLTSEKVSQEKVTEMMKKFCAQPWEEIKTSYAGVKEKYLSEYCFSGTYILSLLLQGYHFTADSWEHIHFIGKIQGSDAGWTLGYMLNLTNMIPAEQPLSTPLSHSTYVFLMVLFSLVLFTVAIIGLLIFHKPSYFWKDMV
Experimental: Mutants were transfected in Hek-293T cells, as shown in the table 1, using numbering of SEQ ID NO: 1. […] Mutant 19 includes substitutions at residues R138, M139 and E142.
In order to define the epitopes of the further anti-CD39 antibodies of Example 5, they were tested for loss of binding to the panel of CD39 mutants as described in Example 1 and Table 1. Mutants were transfected in Hek-293T cells, as shown in the table 1, using numbering of SEQ ID NO: 1.Dose-ranges of test antibodies (10-2.5-0.625-0.1563-0.0391-0.0098-0.0024-0.0006 μg/ml) are tested on the 20 generated mutants by flow cytometry.

[3] = biological target: T3, human CD39 (vascular CD39, NTPDase1) expressed at the surface of cells (human, UniProt P49961 1-510); test: cell-based or functional assay
T3 sequence: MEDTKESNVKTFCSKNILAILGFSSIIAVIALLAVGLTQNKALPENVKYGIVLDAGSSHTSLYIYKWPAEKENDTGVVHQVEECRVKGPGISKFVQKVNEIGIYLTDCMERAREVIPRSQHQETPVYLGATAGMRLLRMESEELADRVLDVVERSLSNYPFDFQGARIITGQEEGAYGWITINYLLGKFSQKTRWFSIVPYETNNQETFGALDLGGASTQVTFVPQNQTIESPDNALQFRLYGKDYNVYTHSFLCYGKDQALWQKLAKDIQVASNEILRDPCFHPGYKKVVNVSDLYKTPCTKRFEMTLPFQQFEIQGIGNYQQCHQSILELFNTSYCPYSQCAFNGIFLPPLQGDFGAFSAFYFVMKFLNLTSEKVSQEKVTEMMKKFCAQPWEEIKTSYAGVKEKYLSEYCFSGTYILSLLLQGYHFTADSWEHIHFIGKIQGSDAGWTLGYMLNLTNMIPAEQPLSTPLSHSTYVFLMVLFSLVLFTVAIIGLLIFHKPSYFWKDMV

[4] = biological target: T4, soluble recombinant human CD39-M2 extracellular domain protein (human, UniProt P49961 38-478, limits assumed); test: cell-based or functional assay
T4 sequence: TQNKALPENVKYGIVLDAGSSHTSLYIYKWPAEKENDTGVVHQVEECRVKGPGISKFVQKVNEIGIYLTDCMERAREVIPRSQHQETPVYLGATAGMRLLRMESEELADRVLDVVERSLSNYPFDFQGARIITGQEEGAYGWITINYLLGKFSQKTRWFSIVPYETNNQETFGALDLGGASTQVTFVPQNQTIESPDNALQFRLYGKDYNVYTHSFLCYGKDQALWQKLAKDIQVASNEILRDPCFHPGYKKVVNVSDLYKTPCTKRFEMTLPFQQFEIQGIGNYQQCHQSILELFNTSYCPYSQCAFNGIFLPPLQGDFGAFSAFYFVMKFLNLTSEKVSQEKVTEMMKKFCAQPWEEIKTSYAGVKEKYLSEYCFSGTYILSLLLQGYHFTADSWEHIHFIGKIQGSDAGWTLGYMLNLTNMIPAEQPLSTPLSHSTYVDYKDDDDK

- binding result [1]: no binding (tested: about 50 µg/ml)
- Median : Comp-Alexa Fluor 647-A [2]: 1470
- IC50, inhibition of ATPase activity of CD39 on Ramos cells (Cell Titer Glo) [3]: 0.05 µg/mL
- IC50, inhibition of ATPase activity of soluble CD39 protein (Cell Titer Glo) [4]: 0.003 µg/mL
B1: antibody I-394 (antibody, V domains shown)
VH: EVQLQQSGPELVKPGASVKMSCKASGYTFTDYNMHWVKQSHGRTLEWIGYIVPLNGGSTFNQKFKGRATLTVNTSSRTAYMELRSLTSEDSAAYYCARGGTRFAYWGQGTLVTVSA
VL: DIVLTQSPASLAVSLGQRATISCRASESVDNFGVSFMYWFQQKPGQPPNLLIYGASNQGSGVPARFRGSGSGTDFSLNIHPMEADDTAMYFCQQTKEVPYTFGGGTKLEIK
notes: Mouse variable regions; Produced in CHO with human IgG1 constant domains carrying L234A/L235E/G237A/A330S/P331S (Kabat EU numbering) and a human Ck constant domain

Source: patent US20190389961A1 (INNATE PHARMA, published 2019)
